No end group written: not given here.

Broadly, the stoichiometry N is the number of molecules, sites or subunits per partner or assembly.

B1: p75-TM-C257A (C257A point mutant form of p75TM) (domain or fragment, human)
chain: MTRGTTDNLIPVYASILAAVVVGLVAYIAFKRWNSSKQNKQ
modifications: also: 15N-labeled in one set, unlabeled in the other
notes: methionine printed before T245; Seen as monomer, noncovalent homodimer and heterodimer with TrkA-TM in the NMR samples; also called p75-C257A; p75-C257A-TM; source: cell-free expression (E. coli Rosetta(DE3)pLysS S30 extract), in DPC micelles

The target in data set [1] is full-length TrkA tagged with mTurquoise (UniProt P04629).
Chain of full-length TrkA tagged with mTurquoise (P04629 33-796): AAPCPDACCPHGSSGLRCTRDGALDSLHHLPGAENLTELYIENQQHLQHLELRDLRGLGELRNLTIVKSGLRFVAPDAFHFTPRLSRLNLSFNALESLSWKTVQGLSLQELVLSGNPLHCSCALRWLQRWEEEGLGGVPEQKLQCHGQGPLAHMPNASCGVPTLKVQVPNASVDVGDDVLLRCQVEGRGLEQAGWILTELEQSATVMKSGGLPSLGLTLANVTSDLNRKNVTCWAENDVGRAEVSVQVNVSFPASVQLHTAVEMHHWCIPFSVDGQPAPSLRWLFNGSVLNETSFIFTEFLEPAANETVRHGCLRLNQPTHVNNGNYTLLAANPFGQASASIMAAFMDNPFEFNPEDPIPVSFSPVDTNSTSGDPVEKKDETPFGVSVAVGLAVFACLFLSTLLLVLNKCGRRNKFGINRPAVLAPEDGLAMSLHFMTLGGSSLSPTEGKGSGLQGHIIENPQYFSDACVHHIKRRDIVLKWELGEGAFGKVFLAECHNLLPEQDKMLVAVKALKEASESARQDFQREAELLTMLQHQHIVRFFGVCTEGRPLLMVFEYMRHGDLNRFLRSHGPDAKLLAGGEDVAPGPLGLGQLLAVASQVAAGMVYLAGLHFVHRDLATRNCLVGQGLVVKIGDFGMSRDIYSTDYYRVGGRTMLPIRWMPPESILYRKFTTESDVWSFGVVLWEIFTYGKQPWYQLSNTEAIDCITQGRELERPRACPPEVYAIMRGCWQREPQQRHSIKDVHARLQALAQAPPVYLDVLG
Data set [2] concerns the molecule itself. As to the kind of experiment: NMR cross-correlated relaxation (rotational correlation time, hydrodynamic radius); cross-correlated relaxation rates of p75-TM-C257A amide signals (I259, V263, G266, A269, Y270) of monomer, homodimer and heterodimer in DPC micelles, 45 °C.
For data set [3], the target named is B1. The data set is described as above. The settings on record: both partners purified.
Data set [4] deals with the molecule itself. Kind of data set: NMR titration; unlabeled p75-TM-C257A added incrementally to 0.5 mM 15N-labeled TrkA-TM; DPC micelles, LPR 80, pH 5.9, 318 K, 20 mM sodium phosphate.

As for “p75–AGA mutation (triple mutation A262,G266,A269 to Ile) (from UniProt P08138 29-427) (receptor)”, the EC50 of NGF for TrkA phosphorylation (activation loop, Western blot) in HeLa cells coexpressing TrkA and p75–AGA, NGF 0 to 100 ng/ml in data set [1] stood at 1.7 nM.

“p75-TNFR (p75 with its TMD swapped with the one from the TNFR) (from UniProt P08138 29-427) (receptor)” returned an EC50 of NGF for TrkA phosphorylation (activation loop, Western blot) in HeLa cells coexpressing TrkA and p75-TNFR, NGF 0 to 100 ng/ml in data set [1] of 2.7 nM. Take “full-length p75 tagged with enhanced YFP (from UniProt P08138 29-427) (receptor)”: the EC50 of NGF for TrkA phosphorylation (activation loop, Western blot) in HeLa cells coexpressing TrkA and p75, NGF 0 to 100 ng/ml in data set [1] amounted to 0.299 nM.

Regarding B1, the “stoichiometry N” value in data set [2] is 2 chains in the oligomer (homodimer).

B2: human TrkA-TM (domain or fragment)
chain: MKKDETPFGVSVAVGLAVFACLFLSTLLLVLNKAGRRNK
modifications: also: 15N-labeled in one set, unlabeled in the other
notes: methionine printed before K410; human TrkA transmembrane domain, K410 to K447; the A at 442 is printed underlined and not explained; also called TrkA-TM-wt; TrkA-TMD; source: cell-free expression (E. coli Rosetta(DE3)pLysS S30 extract), in DPC micelles
Regarding B2, the “stoichiometry N” value in data set [3] was 1 TrkA-TM per p75-TM-C257A (heterodimer). Further, the binding result in data set [4] was “binds”.

The values above are taken from paper PMC8327350, “Interaction between the transmembrane domains of neurotrophin receptors p75 and TrkA mediates their reciprocal activation” (The Journal of Biological Chemistry, 2021).
